± gives the uncertainty stated by the source.
Assay: protein stability index of a GFP-peptide fusion (yeast GPS) (PSI 1-4); higher = more stable; sorted into four equal gates, so the index is relative within each strain
Settings: doa10∆
In short: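 Tiled 17-residue yeast protein peptides were fused downstream of GFP in a plasmid that also expresses Cherry, and the pooled library was carried in yeast. Mid-log cultures in leucine-free medium were sorted into four equal gates by GFP/Cherry fluorescence ratio, and plasmids from each gate were PCR-amplified and Illumina-sequenced, with reads assigned to strains by barcodes. The protein stability index for each peptide was each gate's read frequency times its gate number, summed.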

Sequence | protein stability index
LHLDYNFNLKPTKTLTT [PRP8] | 2.45 ± 0.034
LHTARKILVLTGAGVST [SIR2] | 2.06 ± 0.052
LHVPNLQPPKTSSRGRD [SMC4] | 2.44 ± 0.044
LIAHQRSAWNNNNDNDA [GRR1] | 2.25 ± 0.049
LIDSLENHLLVMKQVET [PRP28] | 2.49 ± 0.11
LIECLLSKVAALSGNEG [RPB2] | 1.47 ± 0.079
LIELKSDLLVAPPLENE [YML103C/NUP188] | 2.41 ± 0.046
LIEYMENDAKKSKGDVD [NUT1] | 3.05 ± 0.11
LIGAATKFKGGKRQLMK [SEC65] | 1.64 ± 0.1
LILILVISFGQPKLNPM [SWI1] | 1.68 ± 0.054
LIMALLQFRPAPMYILD [SMC2] | 2.47 ± 0.15
LIQKGYLQRGDDGESYA [CDC53] | 3.68 ± 0.15
LISLKLLTFEVTQNVLG [SRB8] | 1.73 ± 0.078
LITTNSVEEVILERAYK [SNF2] | 2.37 ± 0.092
LIVDVKQQGVGLPTDAY [RPN8] | 2.07 ± 0.25
LKAAFVAIGNTYGFLTP [RPS2] | 2.13 ± 0.072
LKDIEARIKEKAGVKES [RPT1] | 2.38 ± 0.27
LKENTYVMERPKNVPTS [YDL116W/NUP84] | 1.81 ± 0.1
LKESIKNSTSSMTAVPK [RPN1] | 3.02 ± 0.096
LKGEIEDYPMSSEIKIY [SIR4] | 1.33 ± 0.15
LKHKSICSCVNRGVKLE [RPP1] | 2.31 ± 0.068
LKHLEEMGKLRERDITS [RRI2] | 2.76 ± 0.079
LKHTDYWYEQDSAKEWP [RPB3] | 3.18 ± 0.15
LKIFLYLESLFAKQVDV [IRR1] | 2.51 ± 0.093
LKIFQEQSLEVFIFPTS [SRB8] | 2.12 ± 0.083

Sequence | protein stability index
LKISLIQIFRAHLWQKI [PRP8] | 1.17 ± 0.077
LKKFLQEKMDPNNSRDD [IRR1] | 3.11 ± 0.081
LKKKYQIILDRFAPDNQ [SIR3] | 1.9 ± 0.09
LKKSEEIINNKTSSQTS [YMR153W/NUP53] | 3.08 ± 0.12
LKLEKLNTNRTFAQEKL [SMC3] | 2.84 ± 0.07
LKLLKENIIQMEMIENR [FAS1] | 1.87 ± 0.065
LKNFLSYESLKKRKIHN [MCD1] | 1.55 ± 0.038
LKNIMKVSDPYVPTRNT [RPN4] | 3.07 ± 0.15
LKNKYESYDAALSLHRE [FAS2] | 3.181 ± 0.019
LKNSIMSFIFPSYAERQ [YML031W/NDC1] | 2.51 ± 0.075
LKQPPFQITLSSDDLQN [SSN8] | 2.23 ± 0.059
LKRRQVIEQCYLKFIPL [SRB8] | 1.91 ± 0.045
LKSAENSGKQQYYRGLP [SWP82] | 2.25 ± 0.1
LKTNFETEWNLQTLAAD [RPB11] | 2.79 ± 0.13
LKVDPDMLTWVDSNLPD [RPC40] | 3.02 ± 0.082
LKVNVTLDNPLLVDKDA [YJL039C/NUP192] | 3.02 ± 0.077
LLAEEEELILPNTKDAM [PRP8] | 3.16 ± 0.089
LLAHKVADEEANIELTW [RPC37] | 1.49 ± 0.074
LLARVIQMNNSLQNNLQ [SNF11] | 3.01 ± 0.11
LLDFNTALKQYEKELMG [RPN6] | 3.14 ± 0.25
LLEISCKQWEISNMLKK [CSI1] | 1.5 ± 0.052
LLETITYVLNTWTNSKI [YML103C/NUP188] | 1.85 ± 0.05
LLFAINSYQPSPFFVLD [SMC1] | 2.16 ± 0.06
LLFPKSTIVNLAREVPQ [DPB4] | 1.77 ± 0.14

Same assay, conditions: pdr5∆

Sequence | protein stability index
LDIINPGSVEEVDKSKL [YDL116W/NUP84] | 3.44 ± 0.11

— the supplement of paper PMC9732359
